B1: GST‐BmVreteno‐L (natural protein, Bombyx mori)
chain: MSNHSRPQRRREWDPMRDDFNEHTYDVQYADDNAGEQVQLDHTKLYIINIPRGLSEDGIRAAFSKHGKVLSARLSKNPNKRFAIVQFETASEAKLAMMKMNGSEPLNLKISIAHKTIRKTQHDNKDRNYSTSRNGHCSRDEASSISSKGWNMRNLDDVMNNDEIDEIDDMIHEDHDDNLDLELDMLTLKQLKIKEEQLMCKRRLLLRHAEKRQVAPHSSAGRSVLPDGRIVVRNNANETDSAEVEPSFAGAGSESLKTPGLERNASRQCVKCGAPADWYCSRCAITPYCSQTCQTRDWTERHKSVCHYLAPLKTAGGFEAEATSSKSVSNSTPMRSSHSPPTKQQRGEADETDNKAKNIQEPRQNYHRPSNSGPNKNIPGKNQDPRRPATSREAIEEETEERGARNPKPAEATKDKHHPMNPVTFQRRQLKSNPVVDAQPAPREQQQPAATRAPEASPTEQRESTRRTLVPDRCLIDSLSEGDVVLVSVELKASECCTKQGGYVCLSMHEKYESDYQKLCEDYVLDCEADSDEYKIITGDTFSYLSPEDGGWYRARALNTTMAALLDGSKVVYLRMNDKVKKLPAKYSGIPEFCCVLNADVEVGLNLKCSLLSKTPNGFKVTLENVETEANVGEGEITRWIPEVDYPPPVKNVPVQRSVEIPEVPRPEIKNKSRVILVDATDVQRVFVRPADTRSQKAFDNILQDVLLYGTTAEPLKEPPSKGQTVVSKYTDNLHYRALCKRTSVNKNKYLLEYIEYGNIEITQLNRLYPCPEHLSVTSLASLTSHVQLDTTVGELTPRALEYIETIKEEEMILTLSSGGDTAQSGAALVNLTLVKNNDNVNKRIEELCTPEWKKLELKGVDVIETERLMYGTALDYIELPAAPFDLQVLDEVGLDSGNISGCPTNSDYVRYVMTKLPARMREYCESEFGRQPYLPAAEELCIAQLPPSSEWHRAVVLEQILGPGGGTARVLFVDHGNVAEVPVSSLRKMLAEFVTDLPAVACQIVIEDFPKQATAEMLAKARRFMSGPDKARAAQLPVRGCDKQDVGIYAIRVPELLEAMTE
notes: BmVreteno Long isoform, Bombyx mori; pGEX-6p vector, 3C site between GST and BmVreteno; the purified protein was associated with nucleic acids; also called GST‐3C‐BmVreteno; full‐length BmVreteno‐L; source: E. coli BL21 DE3 codon+, purified (GSTrap, gel filtration); not shown: GST, N-terminal, kept

Experiments:
[1] = molecular target: the molecule itself; experiment: SEC; gel filtration of purified GST-BmVreteno-L and -S (Superdex 75 and 200 16/60 pg, 25 mM Na-Hepes, 300 mM NaCl, 10% glycerol, pH 7.4); protein associated with nucleic acids
GST‐BmVreteno‐L = molecular target: B1; experiment: pull-down; GSH pull-down: 5 μM GST-BmVreteno (or fragment, variant) on Glutathione Sepharose 4B with 10 μM His-BmGtsf1L, 2 h 4°C, PBS with 0.1% Triton-X100; SDS-PAGE, Coomassie (Fig 5G also anti-His Western blot); conditions: both partners purified

| Binder | binding result [1] | binding result (GST‐BmVreteno‐L) |
| --- | --- | --- |
| B1 | binds | – |
| His‐BmGtsf1L (natural protein, Bombyx mori, BmGtsf1L, Bombyx mori; pET28a, thrombin site after the His6 tag; also called His6‐thrombin‐BmGtsf1L; recombinant BmGtsf1L; source: E. coli BL21 DE3 codon+, purified (HisTrap, gel filtration); not shown: His6, N-terminal, kept) MDDPFVSCPYNPIHRVPRSRLQRHIVKCEWINPTMIACPYNATHRYTQEDMKFHVLNCPSKTSIFPIEKPPKTVASITTPKIILQKEYLPETDPNHEIWDD | – | binds |

Source: paper PMC10711660, “An extended Tudor domain within Vreteno interconnects Gtsf1L and Ago3 for piRNA biogenesis in Bombyx mori” (The EMBO Journal, 2023)
